The values below come from patent US20230077531A1 (Sanofi, published 2023).

Assay [1] deals with T1, huFcγRIIIa_V158 His protein (human, UniProt P08637 17-208).
T1 construct: also called His-tagged recombinant human FcγRIIIa-V158
The assay can be described thus: SPR, His-receptor captured, assay 2 n=3.

Assay [2] deals with T2, huFcγRIIIa_F158 His protein (human, UniProt P08637 17-208). Briefly: SPR, His-receptor captured, assay 2 n=3. (Surface plasmon resonance follows binding to a sensor surface in real time, without labels.)
T2 sequence (P08637 17-208 limits assumed): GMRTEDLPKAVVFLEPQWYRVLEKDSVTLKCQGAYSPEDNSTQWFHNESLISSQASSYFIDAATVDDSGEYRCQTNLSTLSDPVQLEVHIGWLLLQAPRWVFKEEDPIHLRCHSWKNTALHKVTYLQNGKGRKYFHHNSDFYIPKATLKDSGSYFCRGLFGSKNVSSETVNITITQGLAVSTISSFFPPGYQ
For assay [3], the target named is T3, FcγRIIIa V158 on HEK293T cells (human, UniProt P08637 17-254).
T3 construct: whole, on cells
T3 sequence (P08637 17-254 F176V): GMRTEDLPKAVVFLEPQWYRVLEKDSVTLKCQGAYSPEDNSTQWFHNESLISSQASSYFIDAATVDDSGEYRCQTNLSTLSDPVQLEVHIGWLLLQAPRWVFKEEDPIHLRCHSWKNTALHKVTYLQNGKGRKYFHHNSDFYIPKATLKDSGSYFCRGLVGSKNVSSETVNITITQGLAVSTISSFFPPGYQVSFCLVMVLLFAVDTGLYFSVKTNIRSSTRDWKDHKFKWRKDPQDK
Briefly: FACS on HEK293T-FcγRIIIa cells, assay 1 n=3.

The target in assay [4] is T4, FcγRIIIa F158 on HEK293T cells (human, UniProt P08637 17-254).
T4 construct: whole, on cells; also called HEK293T-FcγRIIIa F158
T4 sequence (P08637 17-254): as the sequence (P08637 17-254 F176V) above, with V160F counted along it
The assay can be described thus: FACS on HEK293T-FcγRIIIa cells, assay 1 n=3.

Assay [5] has as its target T1, huFcγRIIIa_V158 His protein. Briefly: SPR, His-receptor captured, assay 1 n=3.
Assay [6] addresses T2, huFcγRIIIa_F158 His protein. Briefly: SPR, His-receptor captured, assay 1 n=3.
Assay [7] concerns the target T5, human FcRn (human, UniProt P55899 24-297).
T5 construct: also called huFcRn; recombinant human FcRn
The assay can be described thus: SPR pH 6.0, huFcRn captured, assay 2 n=3.

In assay [8] the target is T4, FcγRIIIa F158 on HEK293T cells. Briefly: FACS on HEK293T-FcγRIIIa cells, assay 1 n=3; bracketed value under the F158 cell.
In assay [9] the target is T3, FcγRIIIa V158 on HEK293T cells. Briefly: FACS on HEK293T-FcγRIIIa cells, assay 1 n=3; bracketed value under the V158 cell.
For assay [10] the target is unchanged. The assay can be described thus: FACS on HEK293T-FcγRIIIa cells, assay 2 n=1.
Assay [11] has as its target T4, FcγRIIIa F158 on HEK293T cells. Briefly: FACS on HEK293T-FcγRIIIa cells, assay 2 n=1.
The target in assay [12] is T6, human FcγRIIa H131 (human, UniProt P12318 34-317, limits assumed).
T6 construct: FACS implies display on cells, but the methods name no FcγRIIa cell line; also called huFcγRIIa H131
T6 sequence (looked up): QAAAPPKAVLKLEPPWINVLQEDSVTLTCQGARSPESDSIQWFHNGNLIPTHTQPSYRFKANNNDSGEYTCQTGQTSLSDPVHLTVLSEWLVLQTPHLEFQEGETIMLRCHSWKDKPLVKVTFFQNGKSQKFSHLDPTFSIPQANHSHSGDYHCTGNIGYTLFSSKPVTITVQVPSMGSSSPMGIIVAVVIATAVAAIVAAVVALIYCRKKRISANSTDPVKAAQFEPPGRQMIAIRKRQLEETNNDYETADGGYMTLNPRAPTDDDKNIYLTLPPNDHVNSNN
The assay can be described thus: FACS, assay 1 n=3. On the technique in general: A flow cytometer gives signals particle by particle.

The target in assay [13] is T7, human FcγRIIa R131 (human, UniProt P12318 34-317, limits assumed).
T7 construct: FACS implies display on cells, but the methods name no FcγRIIa cell line; also called huFcγRIIa R131
T7 sequence (looked up): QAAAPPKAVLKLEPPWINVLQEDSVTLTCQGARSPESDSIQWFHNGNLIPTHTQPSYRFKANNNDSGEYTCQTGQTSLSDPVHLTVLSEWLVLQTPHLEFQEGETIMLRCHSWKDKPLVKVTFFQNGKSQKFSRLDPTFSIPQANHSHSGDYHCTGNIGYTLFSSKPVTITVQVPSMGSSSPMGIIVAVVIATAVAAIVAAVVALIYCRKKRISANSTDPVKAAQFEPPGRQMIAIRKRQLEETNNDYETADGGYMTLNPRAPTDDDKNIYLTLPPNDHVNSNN
The assay can be described thus: FACS, assay 1 n=3.

Assay [14] addresses T5, human FcRn. The assay can be described thus: SPR pH 6.0, huFcRn captured, assay 1 n=3.
Assay [15] addresses T4, FcγRIIIa F158 on HEK293T cells. The assay can be described thus: FACS on HEK293T-FcγRIIIa cells, assay 1 n=3; cell shifted up, taken as F158.

T5 sequence (P55899 24-297): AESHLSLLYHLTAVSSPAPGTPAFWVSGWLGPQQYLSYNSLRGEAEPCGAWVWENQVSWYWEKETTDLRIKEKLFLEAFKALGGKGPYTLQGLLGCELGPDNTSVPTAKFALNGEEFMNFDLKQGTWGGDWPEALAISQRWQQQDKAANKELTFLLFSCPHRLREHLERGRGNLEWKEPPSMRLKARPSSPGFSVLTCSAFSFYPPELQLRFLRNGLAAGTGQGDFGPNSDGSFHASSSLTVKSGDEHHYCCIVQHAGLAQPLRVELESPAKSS
T1 sequence (P08637 17-208 F176V limits assumed): as the sequence (P08637 17-208 limits assumed) above, with F160V counted along it

B1: mAb1-ADLE (antibody)
chain 1: QVQLVQSGAEVKKPGASVKVSCKASGYSFTSYGISWVRQAPGQGLEWMGWISTYKGYTQYAQNFQGRVTITTDTPATTVYMELRSLRSDDTAVYYCARVLSETGYFYYYYYGMDVWGQGTLVTVSSASTKGPSVFPLAPSSKSTSGGTAALGCLVKDYFPEPVTVSWNSGALTSGVHTFPAVLQSSGLYSLSSVVTVPSSSLGTQTYICNVNHKPSNTKVDKKVEPKSCDKTHTCPPCPAPELLAGPDVFLFPPKPKDTLMISRTPEVTCVVVDVSHEDPEVKFNWYVDGVEVHNAKTKPREEQYNSTYRVVSVLTVLHQDWLNGKEYKCKVSNKALPLPEEKTISKAKGQPREPQVYTLPPSRDELTKNQVSLTCLVKGFYPSDIAVEWESNGQPENNYKTTPPVLDSDGSFFLYSKLTVDKSRWQQGNVFSCSVMHEALHNHYTQKSLSLSPG
chain 2: QAVVTQPPSVSGAPGQRVTISCTGSSSNIGADYNVHWYQLLPGTAPKLLIYGNTNRPSGVPDRFSGSKSGTSASLAITGLQAEDEADYYCQSYDSSLSASVFGGGTKLTVLGQPKAAPSVTLFPPSSEELQANKATLVCLISDFYPGAVTVAWKADSSPVKAGVETTTPSKQSNNKYAASSYLSLTPEQWKSHRSYSCQVTHEGSTVEKTVAPTECS
With B1, the Kd (in general, the equilibrium constant for the complex coming apart) in assay [1] came to 22 nM; in [2] it was 46 nM; in [5], 77 nM; in assay [6], 94 nM; in assay [7] it was 811 nM; in [14], 993 nM. Moreover, the EC50 (as a rule, the concentration needed to bring the measured effect to its halfway point) worked out at 3 nM in assay [3]; 4 nM in assay [4]; 4.37 nM in assay [8]; 2.71 nM in assay [9]; 5 nM in assay [10]; 7 nM in assay [11]. Besides, the figures for the concentration for a half-maximal effect (EC50) in assay [12] and in [13] were 70 nM and 85 nM, respectively.

B2: mAb1 (wt) (IgG1) (antibody)
chain 1: not shown
chain 2: QAVVTQPPSVSGAPGQRVTISCTGSSSNIGADYNVHWYQLLPGTAPKLLIYGNTNRPSGVPDRFSGSKSGTSASLAITGLQAEDEADYYCQSYDSSLSASVFGGGTKLTVLGQPKAAPSVTLFPPSSEELQANKATLVCLISDFYPGAVTVAWKADSSPVKAGVETTTPSKQSNNKYAASSYLSLTPEQWKSHRSYSCQVTHEGSTVEKTVAPTECS
For B2, the Kd is 386 nM in assay [1]; 1330 nM in [2]; 1620 nM in assay [5]; 3870 nM in assay [6]; 941 nM in assay [7]; 1210 nM in [14]. For the same molecule, the EC50 is 186 nM in assay [3]; 1060 nM in assay [4]; 1060 nM in assay [15]; 244 nM in assay [10]; 744 nM in assay [11]; 341 nM in [12]. In addition, the EC50 in [13] came to 303 nM.

B3: mAb1-DE (antibody)
chain 1: not shown
chain 2: QAVVTQPPSVSGAPGQRVTISCTGSSSNIGADYNVHWYQLLPGTAPKLLIYGNTNRPSGVPDRFSGSKSGTSASLAITGLQAEDEADYYCQSYDSSLSASVFGGGTKLTVLGQPKAAPSVTLFPPSSEELQANKATLVCLISDFYPGAVTVAWKADSSPVKAGVETTTPSKQSNNKYAASSYLSLTPEQWKSHRSYSCQVTHEGSTVEKTVAPTECS
For B3, the Kd in assay [1] was found to be 17 nM; in assay [2], 48 nM; in assay [5] it was 57 nM; in assay [6], 141 nM; in assay [7] it was 761 nM; in assay [14] it was 996 nM. Moreover, the EC50 in assay [3] was 2 nM; in [4] it was 11 nM; in [10] it was 4 nM; in assay [11], 18 nM; in assay [12], 106 nM; in assay [13] it was 198 nM.

B4: mAb1-ADE (antibody)
chain 1: QVQLVQSGAEVKKPGASVKVSCKASGYSFTSYGISWVRQAPGQGLEWMGWISTYKGYTQYAQNFQGRVTITTDTPATTVYMELRSLRSDDTAVYYCARVLSETGYFYYYYYGMDVWGQGTLVTVSSASTKGPSVFPLAPSSKSTSGGTAALGCLVKDYFPEPVTVSWNSGALTSGVHTFPAVLQSSGLYSLSSVVTVPSSSLGTQTYICNVNHKPSNTKVDKKVEPKSCDKTHTCPPCPAPELLAGPDVFLFPPKPKDTLMISRTPEVTCVVVDVSHEDPEVKFNWYVDGVEVHNAKTKPREEQYNSTYRVVSVLTVLHQDWLNGKEYKCKVSNKALPAPEEKTISKAKGQPREPQVYTLPPSRDELTKNQVSLTCLVKGFYPSDIAVEWESNGQPENNYKTTPPVLDSDGSFFLYSKLTVDKSRWQQGNVFSCSVMHEALHNHYTQKSLSLSPG
chain 2: QAVVTQPPSVSGAPGQRVTISCTGSSSNIGADYNVHWYQLLPGTAPKLLIYGNTNRPSGVPDRFSGSKSGTSASLAITGLQAEDEADYYCQSYDSSLSASVFGGGTKLTVLGQPKAAPSVTLFPPSSEELQANKATLVCLISDFYPGAVTVAWKADSSPVKAGVETTTPSKQSNNKYAASSYLSLTPEQWKSHRSYSCQVTHEGSTVEKTVAPTECS
Turning to B4, the EC50 in assay [3] was found to be 3 nM; in [4], 9 nM; in assay [12], 20 nM; in assay [13], 20 nM. For the same molecule, the Kd in assay [5] was 107 nM; in assay [6], 150 nM; in assay [14], 1040 nM.

B5: mAb1-ADLE-R292C-V302C (antibody)
chain 1: QVQLVQSGAEVKKPGASVKVSCKASGYSFTSYGISWVRQAPGQGLEWMGWISTYKGYTQYAQNFQGRVTITTDTPATTVYMELRSLRSDDTAVYYCARVLSETGYFYYYYYGMDVWGQGTLVTVSSASTKGPSVFPLAPSSKSTSGGTAALGCLVKDYFPEPVTVSWNSGALTSGVHTFPAVLQSSGLYSLSSVVTVPSSSLGTQTYICNVNHKPSNTKVDKKVEPKSCDKTHTCPPCPAPELLAGPDVFLFPPKPKDTLMISRTPEVTCVVVDVSHEDPEVKFNWYVDGVEVHNAKTKPCEEQYNSTYRCVSVLTVLHQDWLNGKEYKCKVSNKALPLPEEKTISKAKGQPREPQVYTLPPSRDELTKNQVSLTCLVKGFYPSDIAVEWESNGQPENNYKTTPPVLDSDGSFFLYSKLTVDKSRWQQGNVFSCSVMHEALHNHYTQKSLSLSPG
chain 2: QAVVTQPPSVSGAPGQRVTISCTGSSSNIGADYNVHWYQLLPGTAPKLLIYGNTNRPSGVPDRFSGSKSGTSASLAITGLQAEDEADYYCQSYDSSLSASVFGGGTKLTVLGQPKAAPSVTLFPPSSEELQANKATLVCLISDFYPGAVTVAWKADSSPVKAGVETTTPSKQSNNKYAASSYLSLTPEQWKSHRSYSCQVTHEGSTVEKTVAPTECS
Turning to B5, the EC50 in assay [3] came to 12 nM; in [4] it was 25 nM; in [12] it was 155 nM; in [13] it was 144 nM. The Kd in assay [5] is 258 nM; in assay [6], 296 nM; in assay [14], 1130 nM.
